Results reported in publication PMC10392983, “Allosteric activation or inhibition of PI3Kγ mediated through conformational changes in the p110γ helical domain” (eLife, 2023).
“And” between values parts separate entries of the source, which are not always exact repeats. Identical values can stand only once.

B1: Nanobody NB7-PIK3CG (VHH)
VHH: QVQLVESGGGLVQPGGSLRLSCAASGSIFSINAMGWYRQAPGKQRELVAHITSGGSTNYADSVKGRFTISRDNAKNTVYLQMNSLKPEDTAVYYCNEAGDPFLGSTWNGPPAFGSWGQGTQVTVSS
notes: the nanobody chain of PDB 8DP0 (deposited here); Expressed from a pMESy4 vector; also called His-NB7; nanobody 7; source: E. coli WK6 periplasm, purified (HisTrap, Superdex 75); not shown: His6, C-terminal, kept
B2: Nanobody NB7-PIK3CG (VHH)
VHH: B1 VHH
notes: Expressed from a pMESy4 vector; first described in Rathinaswamy et al., 2021b; also called His-NB7; nanobody 7; source: periplasm of WK6 E. coli, purified (HisTrap, Superdex 75); not shown: His6, C-terminal, kept

What was measured:
Conditions in all cases: both partners purified
[1] = biological target: T1, p110α-p85 complex (Homo sapiens (assumed), UniProt P42336;O00459); assay: BLI; His-tagged NB7 (500 nM) immobilised on Anti-Penta-His biosensor; PI3K complexes in solution (dose response 50-1.9 nM; class IA comparison at 50 nM); 600 s association, 1200 s dissociation; 20 mM Tris pH 8.5, 100 mM NaCl, 50 mM ammonium sulfate, 0.1% BSA, 0.02% Tween 20; global fit to a 1:1 model
T1 construct: p110α catalytic subunit of class IA PI3K; plasmid as previously described; p85 regulatory subunit; the legend says only p85; also called PI3Kα

[2] = biological target: T2, p110δ-p85 complex (Homo sapiens (assumed), UniProt O00329;O00459); assay: as above
T2 construct: p110δ catalytic subunit of class IA PI3K; plasmid as previously described; p85 regulatory subunit; the legend says only p85; also called PI3Kδ

[3] = biological target: T3, p110γ-p84 complex (Homo sapiens p110γ; Mus musculus p84, UniProt P48736;Q3U6Q4); assay: as above
T3 construct: Homo sapiens p110γ (PIK3CG), full-length; Mus musculus p84 regulatory subunit of PI3Kγ; The purification tag stood on p84 only; also called PI3Kγ p110γ-p84; not shown: His10, N-terminal, cleaved; 2x Strep, N-terminal, cleaved
T3 sequence (P48736 whole entry, chain 1 of 2): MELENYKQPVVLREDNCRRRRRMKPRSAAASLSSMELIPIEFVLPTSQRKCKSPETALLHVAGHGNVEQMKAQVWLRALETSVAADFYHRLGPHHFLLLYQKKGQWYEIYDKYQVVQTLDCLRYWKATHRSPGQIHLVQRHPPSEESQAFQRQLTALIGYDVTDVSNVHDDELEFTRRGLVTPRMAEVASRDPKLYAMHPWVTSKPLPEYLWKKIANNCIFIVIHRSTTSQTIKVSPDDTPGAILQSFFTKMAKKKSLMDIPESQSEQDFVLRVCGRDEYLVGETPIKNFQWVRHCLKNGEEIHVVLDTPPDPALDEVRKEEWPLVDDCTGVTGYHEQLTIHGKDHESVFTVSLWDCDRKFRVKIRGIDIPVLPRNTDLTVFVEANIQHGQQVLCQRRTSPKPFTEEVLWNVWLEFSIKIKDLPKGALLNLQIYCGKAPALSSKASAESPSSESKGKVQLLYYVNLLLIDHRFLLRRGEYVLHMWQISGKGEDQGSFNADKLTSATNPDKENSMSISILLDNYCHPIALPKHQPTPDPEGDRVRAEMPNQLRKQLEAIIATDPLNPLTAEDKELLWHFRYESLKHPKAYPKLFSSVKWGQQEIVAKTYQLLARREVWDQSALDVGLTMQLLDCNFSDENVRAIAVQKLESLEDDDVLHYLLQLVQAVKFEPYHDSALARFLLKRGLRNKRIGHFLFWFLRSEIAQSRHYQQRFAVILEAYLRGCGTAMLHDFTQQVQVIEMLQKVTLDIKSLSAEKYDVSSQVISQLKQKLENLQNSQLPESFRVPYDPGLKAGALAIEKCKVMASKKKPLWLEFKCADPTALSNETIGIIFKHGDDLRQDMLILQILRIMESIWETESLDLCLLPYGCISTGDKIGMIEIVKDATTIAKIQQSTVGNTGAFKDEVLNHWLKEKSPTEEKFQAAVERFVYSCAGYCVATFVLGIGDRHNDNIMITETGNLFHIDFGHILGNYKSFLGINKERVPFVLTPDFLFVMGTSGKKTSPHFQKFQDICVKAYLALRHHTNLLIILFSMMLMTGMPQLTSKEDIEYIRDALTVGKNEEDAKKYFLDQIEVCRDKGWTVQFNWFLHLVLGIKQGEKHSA
T3 sequence (Q3U6Q4 whole entry, chain 2 of 2): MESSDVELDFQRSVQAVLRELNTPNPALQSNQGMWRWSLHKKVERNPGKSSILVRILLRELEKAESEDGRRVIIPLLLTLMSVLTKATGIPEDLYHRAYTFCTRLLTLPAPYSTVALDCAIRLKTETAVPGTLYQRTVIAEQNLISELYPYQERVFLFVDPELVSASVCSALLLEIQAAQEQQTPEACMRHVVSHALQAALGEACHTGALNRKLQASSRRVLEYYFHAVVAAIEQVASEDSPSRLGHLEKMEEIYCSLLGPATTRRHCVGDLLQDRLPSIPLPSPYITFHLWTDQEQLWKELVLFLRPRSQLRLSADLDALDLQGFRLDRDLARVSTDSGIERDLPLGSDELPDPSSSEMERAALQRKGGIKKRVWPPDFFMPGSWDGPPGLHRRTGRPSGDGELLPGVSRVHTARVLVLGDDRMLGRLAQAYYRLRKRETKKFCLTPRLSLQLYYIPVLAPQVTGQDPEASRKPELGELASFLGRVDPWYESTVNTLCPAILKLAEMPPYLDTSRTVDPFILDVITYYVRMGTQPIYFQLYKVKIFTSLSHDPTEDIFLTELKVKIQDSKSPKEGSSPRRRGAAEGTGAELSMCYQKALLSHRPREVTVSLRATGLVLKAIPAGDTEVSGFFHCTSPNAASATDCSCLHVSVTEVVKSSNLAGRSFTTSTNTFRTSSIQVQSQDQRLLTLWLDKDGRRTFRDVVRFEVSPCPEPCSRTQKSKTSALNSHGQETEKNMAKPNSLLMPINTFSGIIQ

[4] = biological target: T4, p110β-p85 complex (Homo sapiens (assumed), UniProt P42338;O00459); assay: as above
T4 construct: p110β catalytic subunit of class IA PI3K; plasmid as previously described; p85 regulatory subunit; the legend says only p85; also called PI3Kβ

[5] = biological target: T5, p110γ-p101 complex (Homo sapiens p110γ; Sus scrofa p101, UniProt P48736;PDB); assay: as above
T5 construct: Homo sapiens p110γ (PIK3CG), full-length; Sus scrofa p101 regulatory subunit of PI3Kγ; The purification tag stood on p101 only; also called PI3Kγ p110γ-p101; not shown: His10, N-terminal, cleaved; 2x Strep, N-terminal, cleaved
T5 sequence (P48736 whole entry, chain 1 of 2): as the sequence (P48736 whole entry, chain 1 of 2) above
T5 sequence (O02696 whole entry, chain 2 of 2, further chain): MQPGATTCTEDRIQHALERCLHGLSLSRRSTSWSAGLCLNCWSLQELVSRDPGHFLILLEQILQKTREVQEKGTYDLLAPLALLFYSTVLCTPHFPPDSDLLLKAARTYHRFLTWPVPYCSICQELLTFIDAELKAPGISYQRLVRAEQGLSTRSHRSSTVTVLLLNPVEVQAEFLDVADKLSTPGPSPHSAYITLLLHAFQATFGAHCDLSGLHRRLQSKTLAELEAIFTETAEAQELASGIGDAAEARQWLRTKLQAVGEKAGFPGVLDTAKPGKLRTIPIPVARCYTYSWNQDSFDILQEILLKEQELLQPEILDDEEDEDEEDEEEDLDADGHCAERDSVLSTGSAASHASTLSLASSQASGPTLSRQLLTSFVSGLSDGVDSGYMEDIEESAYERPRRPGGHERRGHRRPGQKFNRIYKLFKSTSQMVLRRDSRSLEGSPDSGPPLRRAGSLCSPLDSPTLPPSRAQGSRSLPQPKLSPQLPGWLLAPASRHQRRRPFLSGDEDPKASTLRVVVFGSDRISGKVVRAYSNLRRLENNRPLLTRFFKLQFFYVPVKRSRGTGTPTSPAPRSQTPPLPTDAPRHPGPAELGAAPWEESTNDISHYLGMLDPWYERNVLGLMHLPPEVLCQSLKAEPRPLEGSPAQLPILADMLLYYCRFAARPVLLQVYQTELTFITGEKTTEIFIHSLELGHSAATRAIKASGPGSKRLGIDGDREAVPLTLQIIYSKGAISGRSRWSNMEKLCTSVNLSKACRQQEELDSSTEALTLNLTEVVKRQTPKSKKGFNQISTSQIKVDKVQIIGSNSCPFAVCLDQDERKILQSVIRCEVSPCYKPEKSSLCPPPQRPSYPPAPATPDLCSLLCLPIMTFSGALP

[6] = biological target: T6, p110γ-p101 complex (Homo sapiens p110γ; Sus scrofa p101, UniProt P48736;PDB); assay: BLI; His-NB7 (500 nM) immobilised on Anti-Penta-His (HIS1K) biosensor, dipped into p110γ, p110γ-p84 or p110γ-p101 (50-1.9 nM); association 600 s, dissociation 1200 s; Octet buffer 20 mM Tris pH 8.5, 100 mM NaCl, 50 mM ammonium sulfate, 0.1% BSA, 0.02% Tween 20; 1:1 model; the sheet gives one set of constants for each analyte concentration (column Conc. (nM))
T6 construct: p110γ, Homo sapiens, from plasmid pMultiBac-hsp110γ-ssp101; p101 regulatory subunit, Sus scrofa, from plasmid pMultiBac-hsp110γ-ssp101; The purification tag stood on the N-terminus of p101 and was removed by TEV protease; also called p110gp101; not shown: 10x histidine, N-terminal, cleaved; 2x strep, N-terminal, cleaved
T6 sequence (P48736 whole entry, chain 1 of 2): as the sequence (P48736 whole entry, chain 1 of 2) above
T6 sequence (O02696 whole entry, chain 2 of 2, further chain): as the sequence (O02696 whole entry, chain 2 of 2, further chain) above

Binder	binding result [1]	binding result [2]	Kd [3]	binding result [4]	Kd [5]	kon [6]
B1	no binding (tested: 50 nM)	no binding (tested: 50 nM)	~2 nM	no binding (tested: 50 nM)	~2 nM	
B2						105000 M⁻¹ s⁻¹ and 111000 M⁻¹ s⁻¹ and 50200 M⁻¹ s⁻¹
